In series [1] the target is alpha-bungarotoxin (α-Bgt) (Bungarus multicinctus (Taiwan banded …, UniProt P60615 22-95)). The experiment in a line: fluorescence quenching titration; 10 mM Tris-HCl pH 7.5, 1 mM EDTA, 100 mM NaCl; temperature not stated; […]. Conditions: protein: native; tags: none; label: 5'-FAM.
The target of a further series is T1, cardiotoxin 3 (CTX3) (Naja atra (Taiwan cobra), UniProt P60301 22-81).
T1 sequence: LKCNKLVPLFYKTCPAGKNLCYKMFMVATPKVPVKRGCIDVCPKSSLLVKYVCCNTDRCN
The experiment in a line: fluorescence quenching titration; 10 mM Tris-HCl pH 7.5, 1 mM EDTA, 100 mM NaCl; temperature not stated; fluorescence with 4 nM aptamer (ex 480/em 520 nm); EMSA with 5 uM aptamer, 20 min, 2% agarose, TAE. Conditions: protein: native, tags: none, label: 5'-FAM. (In general: A gel shift assay detects complexes by their altered migration in electrophoresis.)

Series [2] has as its target T2, cardiotoxin-like protein (CLBP) (Naja atra (Taiwan cobra), UniProt P62375 22-83).
T2 sequence: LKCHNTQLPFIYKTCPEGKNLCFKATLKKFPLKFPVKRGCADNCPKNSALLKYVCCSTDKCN
The experiment in a line: fluorescence quenching titration; 10 mM Tris-HCl pH 7.5, 1 mM EDTA, 100 mM NaCl; temperature not stated; […]. The conditions noted are these: protein: native; tags: none; label: 5'-FAM.

In a further series the target is T3, cardiotoxin 5 (CTX5) (Naja atra (Taiwan cobra), UniProt Q98961 22-81).
T3 sequence: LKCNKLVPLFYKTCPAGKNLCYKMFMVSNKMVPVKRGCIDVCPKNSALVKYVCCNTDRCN
The series is described as above. The conditions noted are these: protein: native; tags: none; label: 5'-FAM.

The target in another series is T4, cardiotoxin N (CTXN) (Naja atra (Taiwan cobra), UniProt P80245 22-81).
T4 sequence: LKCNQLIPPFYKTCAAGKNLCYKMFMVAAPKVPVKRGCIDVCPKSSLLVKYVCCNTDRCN
The series is described as above. Conditions: protein: native; tags: none; label: 5'-FAM.

A further series has as its target T5, cardiotoxin 4 (CTX4) (Naja atra (Taiwan cobra), UniProt P01443 22-81).
T5 sequence: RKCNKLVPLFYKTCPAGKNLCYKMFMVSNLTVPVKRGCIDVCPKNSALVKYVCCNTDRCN
The experiment in a line: fluorescence quenching titration; 10 mM Tris-HCl pH 7.5, 1 mM EDTA, 100 mM NaCl; temperature not stated; fluorescence with 4 nM aptamer (ex 480/em 520 nm); EMSA with 5 uM aptamer, 20 min, 2% agarose, TAE. Conditions: protein: native; tags: none; label: 5'-FAM.

The target of the next series is T6, cardiotoxin 2 (CTX2) (Naja atra (Taiwan cobra), UniProt P01442 22-81).
T6 sequence: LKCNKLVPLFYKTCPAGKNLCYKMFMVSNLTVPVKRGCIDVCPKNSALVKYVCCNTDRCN
The series is described as above. The conditions noted are these: protein: native; tags: none; label: 5'-FAM.

The target in a further series is T7, cardiotoxin 1 (CTX1) (Naja atra (Taiwan cobra), UniProt P60304 22-81).
T7 sequence: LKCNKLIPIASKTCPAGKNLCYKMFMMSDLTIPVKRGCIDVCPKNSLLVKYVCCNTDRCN
Described as above. Conditions: protein: native; tags: none; label: 5'-FAM.

alpha-bungarotoxin (α-Bgt) (Bungarus multicinctus, sequence (P60615 22-95): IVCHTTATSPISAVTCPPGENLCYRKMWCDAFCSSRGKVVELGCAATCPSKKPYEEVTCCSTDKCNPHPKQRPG

One may read the Kd as the concentration at which binding is half-saturated. Consider AGGGCACAGAGAAGAAGTCGTGGATTTGAATGGTTTTGGT (ssDNA) [FAM-bgt2], for which the figures for the Kd (in series [1]; in the series with cardiotoxin 3 (CTX3)) were 460 nM and 260 nM, respectively.
Regarding GCGAGGTGTTCGAGAGTTAGGGCGACATGACCAAACGTT (ssDNA) [FAM-bgt1], the Kd in series [2] came out at 7190 nM; with cardiotoxin 5 (CTX5), 17200 nM; in the series with cardiotoxin N (CTXN), 8850 nM; in series [1] it was 2210 nM; with cardiotoxin 4 (CTX4), 8130 nM; with cardiotoxin 2 (CTX2), 6290 nM. In addition, the Kd with cardiotoxin 1 (CTX1) was found to be 2510 nM; in the series with cardiotoxin 3 (CTX3), 2250 nM.
In the series with cardiotoxin 3 (CTX3) (3'-DABCYL), GCGAGGTGTTCGAGAGTTAGGGCGACATGACCAAACGTT (ssDNA) [FAM-bgt1-DABCYL] displayed a Kd of 2350 nM.
Take ATCATGTCTTTTCGGGATGGGCAAGAAGGGAAATAATGC (ssDNA) [FAM-bgt3]: the figures for the Kd (in series [1]; with cardiotoxin 3 (CTX3)) were 140 nM and 1260 nM, respectively.
As for AGAAACGTAGCGGTAACTGCTAGAATGCGCCGAGAGAGCG (ssDNA) [FAM-bgt4], the Kd is 280 nM in series [1] and 1170 nM with cardiotoxin 3 (CTX3).

Values taken from paper PMC4810211, “DNA Aptamers against Taiwan Banded Krait α-Bungarotoxin Recognize Taiwan Cobra Cardiotoxins”.
